Laboratory results from patent publication US11001838B2, “Platform for screening phosphomevalonate decarboxylase” (The Regents of the University of California, priority 2017, dated 2021).
Changes are numbered by the printed parent chain. Names and notes keep the numbering of the source. Values joined by “and” are separate entries in the source; they are usually repeats but may differ in a detail not shown here. Equal entries are not always repeated.

How the values were obtained:
DH1 = test: Fosmidomycin sensitivity of E. coli strain DH1; assay type: cell-based
Protocol: Fosmidomycin sensitivity was tested by introducing various amounts of fosmidomycin into DH1, BW25113 and BL21, three E. coli strains commonly used for microbial metabolic engineering. […] At higher concentrations of fosmidomycin, cell death was accelerated in DH1, supported by a fast reduction in optical density (OD) at 600 nm after approximately two hours of exposure to fosmidomycin. On the other hand, both BL21 and BW25113 continued to grow for approximately four hours when exposed to equivalent fosmidomycin levels. Therefore, DH1 was selected as a host strain to screen PMD mutants for improved MVAP decarboxylation activity and subsequent isopentenol production in this study.

E. coli DH1 [1] = test: Isopentenol production in E. coli via IPP-bypass MVA pathway (GC-FID); assay type: cell-based, Escherichia coli
[2] = substrate: C[C@@](O)(CCOP(=O)(O)O)CC(=O)O; test: purified protein, by the assay type; details: other: MVAP 0.100-4.0 mM, 4 mM ATP, pH 7.5, brackets: standard error
Protocol: This turnover number (kobs) depends upon each mutant's kcat, KM, and KI, yielding a more accurate assessment of the turnover conditions in vivo (Kang et al., 2016).
In vitro enzyme kinetics of PMDsc were performed as described in the previous study (Kang et al., 2016). Briefly, enzymatic activity was determined by a spectrophotometric assay quantifying ADP product formation via the pyruvate kinase/lactate dehydrogenase coupled enzyme assay. Assay mixtures were prepared in 150 μL total volume containing 50 mM HEPES-KOH (pH 7.5), 10 mM MgCl2, 400 μM phosphoenolpyruvate, 400 μM NADH, 4 mM ATP, and 25 U of pyruvate kinase/lactate dehydrogenase. The reaction was initiated by enzyme after incubating PMDsc substrate and cofactor for fifteen minutes with coupled assay components. The MVAP was varied from 0.100-4.0 mM, and the reaction velocity was determined by monitoring the absorbance at 340 nm in a Spectramax 384plus microplate reader (Molecular Devices, USA). To obtain kinetic data relevant to non-competitive substrate inhibition, MVAP was varied from 0.100-100 mM. Enzyme concentration (ε=56,630 M^−1 cm^−1) was determined spectrophotometrically at 280 nm with a NanoDrop ND-1000 spectrophotometer. kcat and KM were derived for PMDsc mutants by fitting the initial velocities measured from 0.100-4.0 mM MVAP to the Michaelis-Menten equation; KI was determined for select mutants by fitting initial velocities measured from 0.100-100 mM MVAP to the non-competitive substrate inhibition equation. All kinetic analysis was performed in Graphpad Prism, version 7.0a.

E. coli DH1 [3] = test: Growth of E. coli DH1 under the screening conditions (MEP pathway blocked by fosmidomycin, IPP-bypass pathway + IPK); details: for growth under fosmidomycin selection pressure: screening platform
[4] = substrate: C[C@@](O)(CCOP(=O)(O)O)CC(=O)O; test: In vitro kinetics of MVAP decarboxylation by PMDsc M212Q (coupled assay); assay type: biochemical, Saccharomyces cerevisiae; details: other: MVAP 0.100-4.0 mM, 4 mM ATP, pH 7.5, brackets: standard error
[5] = cited from earlier work; for activity of WT for phosphomevalonate (MVAP): previous study (Kang 2015)
[6] = substrate: C[C@@](O)(CCOP(=O)(O)O)CC(=O)O; test: In vitro kinetics of MVAP decarboxylation by PMDsc S186C (coupled assay); assay type: biochemical, Saccharomyces cerevisiae; details: other: MVAP 0.100-4.0 mM, 4 mM ATP, pH 7.5, brackets: standard error
[7] = substrate: C[C@@](O)(CCOP(=O)(O)O)CC(=O)O; test: In vitro kinetics of MVAP decarboxylation by PMDsc Y19H (coupled assay); assay type: biochemical, Saccharomyces cerevisiae; details: other: MVAP 0.100-4.0 mM, 4 mM ATP, pH 7.5, brackets: standard error
[8] = substrate: C[C@@](O)(CCOP(=O)(O)O)CC(=O)O; test: In vitro kinetics of MVAP decarboxylation by PMDsc K22Y (coupled assay); assay type: biochemical, Saccharomyces cerevisiae; details: other: MVAP 0.100-4.0 mM, 4 mM ATP, pH 7.5, brackets: standard error
E. coli DH1 [9] = details: Kang et al., 2016; cited from earlier work
[10] = In vitro enzyme kinetics of PMDsc variants (pyruvate kinase/lactate dehydrogenase coupled assay); assay type: biochemical
[11] = substrate: C[C@@](O)(CCOP(=O)(O)O)CC(=O)O; test: In vitro kinetics of MVAP decarboxylation by PMDsc I145A (coupled assay); assay type: biochemical, Saccharomyces cerevisiae; details: other: MVAP 0.100-4.0 mM, 4 mM ATP, pH 7.5, brackets: standard error
[12] = substrate: C[C@@](O)(CCOP(=O)(O)O)CC(=O)O; test: In vitro kinetics of MVAP decarboxylation by PMDsc R147K (coupled assay); assay type: biochemical, Saccharomyces cerevisiae; details: other: MVAP 0.100-4.0 mM, 4 mM ATP, pH 7.5, brackets: standard error
[13] = text and figure legends, 48 hours after induction
[14] = 10-fold higher inducer concentration (100 nM aTc)
[15] = Table 2, screening conditions, standard deviation in brackets
[16] = compared with wild type or library mutants
[17] = Table 2, MVAP 0.100-4.0 mM, standard error in brackets
[18] = Table 2, MVAP, standard error in brackets

## O=CN(O)CCCP(=O)(O)O [fosmidomycin]
DH1; 10 μM fosmidomycin
  growth on fosmidomycin: no growth
DH1; higher concentrations of fosmidomycin
  exposure time until fast reduction in OD at 600 nm: approximately two

B1: Saccharomyces cerevisiae diphosphomevalonate decarboxylase (PMDsc), wild type, SEQ ID NO: 1 (Saccharomyces cerevisiae S288C) (protein)
chain: MTVYTASVTAPVNIATLKYWGKRDTKLNLPTNSSISVTLSQDDLRTLTSAATAPEFERDTLWLNGEPHSIDNERTQNCLRDLRQLRKEMESKDASLPTLSQWKLHIVSENNFPTAAGLASSAAGFAALVSAIAKLYQLPQSTSEISRIARKGSGSACRSLFGGYVAWEMGKAEDGHDSMAVQIADSSDWPQMKACVLVVSDIKKDVSSTQGMQLTVATSELFKERIEHVVPKRFEVMRKAIVEKDFATFAKETMMDSNSFHATCLDSFPPIFYMNDTSKRIISWCHTINQFYGETIVAYTFDAGPNAVLYYLAENESKLFAFIYKLFGSVPGWDKKFTTEQLEAFNHQFESSNFTARELDLELQKDVARVILTQVGSGPQETNESLIDAKTGLPKE
E. coli DH1 [1]
  48 hr Titer (isopentenol): 475 (40) mg/L and 475 mg/L
E. coli DH1 [1]; [13]
  isopentenol titer: 475.1 mg/L
E. coli DH1 [1]; text and figure legends, 48 hours after induction, listed as wild type
  isopentenol titer: 475 mg/L
[2]
  Km: 2.3 ± 0.2 mM
  kcat: 0.15 (0.01) sec^−1
  kcat/Km: 0.066 (0.007) mM^−1 sec^−1
E. coli DH1 [3]; [14]
  Growth rate: 0.83±0.01 hr^1
E. coli DH1 [3]; FIG. 6 legend
  growth rate (reference line FIG. 6): 0.4
E. coli DH1 [3]; [15]
  Growth rate: 0.39 (0.02) hr^−1
E. coli DH1 [3]; Table 3
  Growth rate: 0.39 h⁻¹
E. coli DH1 [3]; screening conditions
  Growth rate: 0.4 h⁻¹

B2: S155E (protein)
chain: B1 chain with S155E
E. coli DH1 [3]
  growth under fosmidomycin selection pressure: impaired growth

B3: Saccharomyces cerevisiae diphosphomevalonate decarboxylase (PMDsc, SEQ ID NO: 1) variant M212Q (Saccharomyces cerevisiae S288C; M212Q) (protein)
chain: B1 chain with M212Q
notes: His tag; made in house; host or cells: E. coli Rosetta (DE3)
E. coli DH1 [1]
  48 hr Titer (isopentenol): 601 (76) mg/L
E. coli DH1 [1]; [16]
  isopentenol titer: significantly increase isopentenol titer
E. coli DH1 [3]; [15]
  Growth rate: 0.09 (0.01) hr^−1
[4]
  Km: 0.7 (0.2) mM
  kcat: 0.35 (0.02) sec^−1
  kcat/Km: 0.5 (0.1) mM^−1 sec^−1

B4: Saccharomyces cerevisiae diphosphomevalonate decarboxylase (PMDsc, SEQ ID NO: 1) variant R74G (Saccharomyces cerevisiae S288C; R74G) (protein)
chain: B1 chain with R74G
E. coli DH1 [1]
  48 hr Titer (isopentenol): 975 (96) mg/L and 975 mg/L
[2]
  Km: 3.4 (1.0) mM
  kcat: 0.14 (0.02) sec^−1
  kcat/Km: 0.04 (0.01) mM^−1 sec^−1
E. coli DH1 [3]; [15]
  Growth rate: 0.81 (0.03) hr^−1
E. coli DH1 [3]; Table 3
  Growth rate: 0.81 h⁻¹

B5: K22M: PMDsc mutant K22M with decreased activity, previous study (protein)
chain: B1 chain with K22M
[5]
  activity of WT for phosphomevalonate (MVAP): 25%
E. coli DH1 [3]; [14]
  Growth rate: 0.83±0.01 hr^1
E. coli DH1 [3]
  growth under fosmidomycin selection pressure: decreased growth rates relative to wild type

B6: Saccharomyces cerevisiae diphosphomevalonate decarboxylase (PMDsc, SEQ ID NO: 1) variant S186C (Saccharomyces cerevisiae S288C; S186C) (protein)
chain: B1 chain with S186C
notes: as for B3
E. coli DH1 [1]
  48 hr Titer (isopentenol): 596 (110) mg/L
E. coli DH1 [3]; [15]
  Growth rate: 0.30 (0.02) hr^−1
[6]
  Km: 0.8 (0.2) mM
  kcat: 0.07 (0.01) sec^−1
  kcat/Km: 0.08 (0.02) mM^−1 sec^−1

B7: Q140L (protein)
chain: B1 chain with Q140L
E. coli DH1 [1]; [16]
  isopentenol titer: increased isopentenol production titers

B8: Saccharomyces cerevisiae diphosphomevalonate decarboxylase (PMDsc, SEQ ID NO: 1) variant Y19H (Saccharomyces cerevisiae S288C; Y19H) (protein)
chain: B1 chain with Y19H
notes: as for B3
E. coli DH1 [1]
  48 hr Titer (isopentenol): 388 (9) mg/L
E. coli DH1 [1]; [16]
  isopentenol titer: significantly decreased isopentenol titers
[7]
  Km: 0.35 (0.02) mM
  kcat: 0.27 (0.01) sec^−1
  kcat/Km: 0.78 (0.06) mM^−1 sec^−1
E. coli DH1 [3]; [15]
  Growth rate: 0.22 (0.01) hr^−1

B9: Saccharomyces cerevisiae diphosphomevalonate decarboxylase (PMDsc, SEQ ID NO: 1) variant K22Y (Saccharomyces cerevisiae S288C; K22Y) (protein)
chain: B1 chain with K22Y
notes: as for B3
[8]
  Km: 1.3 (0.3) mM
  kcat: 0.09 (0.01) sec^−1
  kcat/Km: 0.12 (0.03) mM^−1 sec^−1

B10: R74G-E144D (protein)
chain: B1 chain with R74G, E144D
E. coli DH1 [1]
  isopentenol titer relative to wild type: 1.6 fold

B11: T209D (protein)
chain: B1 chain with T209D
E. coli DH1 [9]
  isopentenol titer in E. coli: did not significantly change the isopentenol titer

B12: R74G-R147K-Q140L: PMDsc triple mutant (protein)
chain: B1 chain with R74G, Q140L, R147K
[10]; [17]
  kcat: 0.06 (0.01) sec^−1
[10]; [18]
  Km: 2000 µM
E. coli DH1 [1]
  48 hr Titer (isopentenol): 401 (10) mg/L

B13: E144D (protein)
chain: B1 chain with E144D
E. coli DH1 [1]; [16]
  isopentenol titer: increased isopentenol production titers

B14: Saccharomyces cerevisiae diphosphomevalonate decarboxylase (PMDsc, SEQ ID NO: 1) variant I145A (Saccharomyces cerevisiae S288C; I145A) (protein)
chain: B1 chain with I145A
notes: as for B3
E. coli DH1 [1]
  48 hr Titer (isopentenol): 623 (140) mg/L
E. coli DH1 [3]; [15]
  Growth rate: 0.17 (0.00) hr^−1
[11]
  Km: 2 (1) mM
  kcat: 0.029 (0.004) sec^−1
  kcat/Km: 0.01 (0.01) mM^−1 sec^−1

B15: R74G-R147K: PMDsc double mutant (protein)
chain: B1 chain with R74G, R147K
[10]; [17]
  kcat: 0.22 (0.01) sec^−1
[10]; [18]
  Km: 530 µM
E. coli DH1 [1]
  isopentenol titer relative to wild type: 1.9 fold
  48 hr Titer (isopentenol): 909 (25) mg/L
E. coli DH1 [3]; [15]
  Growth rate: 0.84 (0.04) hr^−1

B16: Saccharomyces cerevisiae diphosphomevalonate decarboxylase (PMDsc, SEQ ID NO: 1) variant R147K (Saccharomyces cerevisiae S288C; R147K) (protein)
chain: B1 chain with R147K
notes: as for B3
E. coli DH1 [1]
  48 hr Titer (isopentenol): 793 (22) mg/L
E. coli DH1 [1]; [16]
  isopentenol titer: increased isopentenol production titers
E. coli DH1 [3]; [15]
  Growth rate: 0.56 (0.02) hr^−1
[12]
  Km: 0.5 (0.1) mM
  kcat: 0.149 (0.006) sec^−1
  kcat/Km: 0.32 (.09) mM^−1 sec^−1

B17: S208E: inactive PMDsc mutant, negative control (protein)
chain: B1 chain with S208E
[5]; Kang et al., 2016
  activity toward MVAP: inactive toward MVAP
[5]
  activity of WT for phosphomevalonate (MVAP): not detectible
E. coli DH1 [3]
  growth under fosmidomycin selection pressure: none of three IPK-expressing DH1 strains (SP4, SP5 and SP6) could grow

B18: V230E: PMDsc mutant V230E (protein)
chain: B1 chain with V230E
[10]; MVAP up to 100 mM, read-out: KI (substrate inhibition)
  Ki: 10 mM
[10]; [17]
  kcat: 0.07 (0.01) sec^−1
[10]; [18]
  Km: 800 µM
[10]; Table 3
  Km: 800 µM
  kcat: 0.07 s⁻¹
[10]; Table 3, observed turnover number calculated at 100 mM MVAP
  kobs: 0.006 s⁻¹
E. coli DH1 [1]
  48 hr Titer (isopentenol): 278 (91) mg/L and 278 mg/L
E. coli DH1 [3]; [15]
  Growth rate: 0.21 (0.18) hr^−1
E. coli DH1 [3]; Table 3
  Growth rate: 0.2 h⁻¹

B19: K22Y: PMDsc mutant K22Y (protein)
chain: B1 chain with K22Y
E. coli DH1 [1]
  48 hr Titer (isopentenol): 22 (8) mg/L
E. coli DH1 [1]; [13]
  isopentenol titer: 22 ± 8 mg/L
E. coli DH1 [3]; [15]
  Growth rate: 0.13 (0.11) hr^−1
